Broadly, the Kd is the constant that tells how readily two partners part at equilibrium.

For test [1], the target named is T1, GDP-tubulin (biotinylated α/β-tubulin heterodimer with GDP-bound β-tubulin) (UniProt Q71U36 1-451; Q9H4B7 1-451, biotinylated tubulin (chain and residues not stated) | biotinylated tubulin (chain and residues not stated)). In words: pull-down; supernatant depletion at equilibrium, same assay as for GTP-tubulin but with bead-bound GDP-tubulin; BuGZ construct (or mEGFP control) in solution; fit with Equation S2 for wild-type BuGZ. As to conditions: both partners purified.

The target of test [2] is GTP-tubulin (biotinylated α/β-tubulin heterodimer with GTP-bound β-tubulin) (UniProt Q71U36 1-451; Q9H4B7 1-451, biotinylated tubulin (chain and residues not stated) | biotinylated tubulin (chain and residues not stated)). The test can be described thus: pull-down; supernatant depletion at equilibrium; varying concentrations of biotinylated GTP-tubulin on streptavidin-coated magnetic beads; BuGZ construct (or mEGFP control) in solution, BuGZ 1.19 μM; 4 °C; nocodazole present; depletion from the supernatant measured by immunoblotting. As to conditions: both partners purified. A general note: A western blot detects proteins with antibodies after separation by electrophoresis.

Test [3] deals with T1, GDP-tubulin (biotinylated α/β-tubulin …). The test can be described thus: cell-based or functional assay.
Test [4] addresses taxol-stabilized microtubules (polymerized with a 1:10 mixture of biotin-labeled: unlabeled GTP-tubulin) (UniProt Q71U36 1-451; Q9H4B7 1-451, biotin on part of the tubulin (1:10 biotin-labeled: unlabeled; chain and residues not stated) | biotin on part of the tubulin (1:10 biotin-labeled: unlabeled; chain and residues not stated)). In words: pull-down; supernatant depletion at equilibrium; varying concentrations of biotin-containing taxol-stabilized microtubules on streptavidin-coated magnetic beads; BuGZ 1.19 μM; 4 °C; BuGZ left in the supernatant measured by quantitative immunoblotting; fit with a rectangular hyperbola (Equation S1). The settings on record: both partners purified.

B1: BuGZ-NTD (domain or fragment)
chain: not shown
notes: BuGZ (ZNF207), Xenopus laevis, UniProt Q7ZXV8; the N-terminal 92 amino acids, which contain the two zinc fingers; The discussion says the zinc finger domain of BuGZ can be produced in bacteria; also called BuGZ's N-terminal domain; N-terminal 92 amino acids of BuGZ; source: purified
B1: the Kd was determined as 1470 nM in test [1] and 7140 nM in test [2].

B2: Xenopus laevis BuGZ (Bub3-interacting and GLEBS motif-containing protein ZNF207), full-length wild type (natural protein)
chain: not shown
notes: BuGZ (ZNF207), Xenopus laevis, UniProt Q7ZXV8; full-length wild type; also called wild-type BuGZ; full-length BuGZ; source: purified
Take B2: in test [3], the “GTP α-32P incorporation into 100 μM GDP-tubulin at equilibrium (1:1 GTP:GDP, 1.19 μM BuGZ, room temperature), increase relative to the control condition” value came to 60.1%. Further, the Kd in test [1] was 45.3 nM; in test [2], 477 nM; in test [4], 9450 nM.

(Values after PMC12302650, “A tubulin-binding protein that preferentially binds to GDP-tubulin and promotes GTP exchange” (The Journal of Biological Chemistry, 2025).)
